Where two headings read alike, the source gives them in different places.
Assays:
[1] = UV-VIS screening of binding and demetallation of Ni(II)-protoporphyrin (IX); format: biochemical; details: 50 μM porphyrin, 24 hrs, room temperature
Procedure: (§1) Three nickel- and one vanadium-containing model porphyrins (Ni(II)-protoporphyrin (IX); Ni(II)-meso-tetra-(4-carboxyphenyl) porphine; Ni(II)-meso-tetra-(N-methyl-4-pyridyl) porphine tetrachloride; & VO-meso-tetra-(N-methyl-4-pyridyl) porphine tetrachloride) were chosen as test substrates for the eight representative NBPs. […] The proteins' nickel- and vanadium-binding capabilities were assayed in a single phase, aqueous environment to eliminate mass transfer limitations that occur between multiple phases and stressful non-aqueous to conditions that may change protein structure and/or inhibit function. This approach minimizes false-negative results to maximize the number of potential protein candidates that can be identified.
A shift in the wavelength of maximal absorbance, commonly referred to as the “Soret band,” indicates a change in porphyrin conformation or a protein-porphyrin interaction.
(§2) To prepare crude protein, aliquots were thawed on ice and diluted 4-fold with protein assay buffer (PAB). To isolate purified nickel-binding proteins, protein aliquots were thawed on ice and proteins of interest were purified by HIS-tag-Ni-NTA column affinity followed by size exclusion chromatography with PD-10 desalting columns. Purified protein was eluted in PAB, collected in the first 2 mL PD-10 column flow-through fraction. Relative to the initial protein concentration, samples were diluted 4-fold to parallel crude protein samples.
(§3) Amber tubes were used for all assays to protect samples from light. Crude and purified protein samples were combined with porphyrin substrates, to achieve final concentrations in Table 3, and total assay volumes were raised to 10 mL with Tris buffer. Absorbance of a 2.4 mL sample was measured in a 1 cm quartz cuvette, at room temperature, 1 nm resolution, and 0.7 sec. integration time on an Evolution201® UV-VIS spectrophotometer with Thermo INSIGHT® software. Samples were incubated for 24 hrs. at room temperature and 75 RPM and their final UV-VIS absorbance spectra was measured. An absorbance baseline was collected using Tris buffer at the beginning of each time point and 1% error was observed between technical replicates.
(§4) Porphyrin Demetallation Calculation was calculated according to the formula (EVf−EXPf)÷EVo=% specific demetallation.

[2] = UV-VIS screening of binding and demetallation of Ni(II)-meso-tetra-(4-carboxyphenyl) porphine; format: biochemical; details: 10 μM porphyrin, 24 hrs
Procedure: as §1
UV-VIS spectroscopy was used for initial screening of protein activity against numerous model compounds because each model porphyrin has a characteristic UV-VIS absorbance spectrum. A shift in the wavelength of maximal absorbance, commonly referred to as the “Soret band,” indicates a change in porphyrin conformation or a protein-porphyrin interaction.
as §2
as §3, with “replicates. Crude, empty pET28b vector (EV) strain lysate protein and PAB only controls were run in parallel with experimental samples (EXP) for each porphyrin.” for “replicates.”
as §4

[3] = cited from earlier work
[4] = selective, repetitive treatment; cited from earlier work
[5] = UV-VIS screening of binding and demetallation of Ni(II)-meso-tetra-(N-methyl-4-pyridyl) porphine tetrachloride; format: biochemical; details: crude and purified protein, 10 μM porphyrin, 24 hrs
Procedure: as §1, with “This approach minimizes false-negative results to maximize the number of potential protein candidates that can be identified.” left out
(§5) UV-VIS spectroscopy was used for initial screening of protein activity against numerous model compounds because each model porphyrin has a characteristic UV-VIS absorbance spectrum. A shift in the wavelength of maximal absorbance, commonly referred to as the “Soret band,” indicates a change in porphyrin conformation or a protein-porphyrin interaction. […]
(§6) Amber tubes were used for all assays to protect samples from light. […] Absorbance of a 2.4 mL sample was measured in a 1 cm quartz cuvette, at room temperature, 1 nm resolution, and 0.7 sec. integration time on an Evolution201® UV-VIS spectrophotometer with Thermo INSIGHT® software. Samples were incubated for 24 hrs. at room temperature and 75 RPM and their final UV-VIS absorbance spectra was measured. […]

[6] = UV-VIS screening of binding and demetallation of VO-meso-tetra-(N-methyl-4-pyridyl) porphine tetrachloride; format: biochemical; details: crude and purified protein, 10 μM porphyrin, 24 hrs
Procedure: as §1, with “This approach minimizes false-negative results to maximize the number of potential protein candidates that can be identified.” left out
as §5, §6

[7] = site (24-His rich N-terminus; His2 and Glu2; micromolar Kd sites)

Molecule	reduction of Ni(II)-protoporphyrin (IX) Soret band (specific demetallation) ([1]; crude protein lysate)	reduction of Ni(II)-protoporphyrin (IX) Soret band (specific demetallation) ([1]; purified protein)	binding / demetallation (change of Soret band) ([2]; crude and purified protein)	other results
Hpn: nickel storage protein from H. pylori, SEQ ID NO 8; very small, histidine rich (MAHHEEQHGGHHHHHHHTHHHHYHGGEHHHHHHSSHHEEGCCSTSDSHHQEEGCCHGHHE; listed as Helicobacter pylori)	did not affect the Soret band	–	–	binding / demetallation (change of Soret band) ([2]; crude lysate only): did not affect the Soret band; affinities for nickel (II) ions ([3]; short repeating motifs, reversible binding): micromolar
E. coli HypB: nickel chaperone HypB from E. coli, SEQ ID NO 2 (protein, listed as Escherichia coli) MCTTCGCGEGNLYIEGDEHNPHSAFRSAPFAPAARPKMKITGIKAPEFTPSQTEEGDLHYGHGEAGTHAPGMSQRRMLEVEIDVLDKNNRLAERNRARFAARKQLVLNLVSSPGSGKTTLLTETLMRLKDSVPCAVIEGDQQTVNDAARIRATGTPAIQVNTGKGCHLDAQMIADAAPRLPLDDNGILFIENVGNLVCPASFDLGEKHKVAVLSVTEGEDKPLKYPHMFAAASLMLLNKVDLLPYLNFDVEKCIACAREVNPEIEIILISATSGEGMDQWLNWLETQRCA	17%	83%	Neither binding nor demetallation was observed	Kd of Ni-binding ([3]; N-terminal Ni binding domain): has micromolar; Kd of Ni-binding ([3]; SEQ ID NO: 12 binding sites in the C-terminal domain): subpicomolar; Ni-binding: Ni (II) ions bound ([3]; per monomer): 2 Ni (II) ions per Ni (II) per monomer
NikR: metalloregulator from H. pylori, SEQ ID NO 7 (protein, listed as Escherichia coli) MRLLHTMLRVGDLQRSIDFYTKVLGMKLLRTSENPEYKYSLAFVGYGPETEEAVIELTYNWGVDKYELGTAYGHIALSVDNAAEACEKIRQNGGNVTREAGPVKGGTTVIAFVEDPDGYKIELIEEKDAGRGLGN	remained unchanged	56%	Neither binding to nor demetallation was observed	Kd of Ni-binding ([3]; 4 Ni (II) per complex, coordinated by His88, His99, His101 & Cys107): nanomolar Kd; Ni-binding: Ni (II) ions bound ([3]; per complex, nanomolar Kd sites): 4 Ni (II) per Ni (II) per complex; Kd of Ni-binding ([3]; up to 10 Ni (II) sites): micromolar Kd
UreE: nickel chaperone from E. aerogenes, SEQ ID NO 5 (protein, Enterobacter aerogenes) MLYLTQRLEIPAAATASVTLPIDVRVKSRVKVTLNDGRDAGLLLPRGLLLRGGDVLSNEEGTEFVQVIAADEEVSVVRCDDPFMLAKACYHLGNRHVPLQIMPGELRYHHDHVLDDMLRQFGLTVTFGQLPFEPEAGAYASESHGHHHAHHDHHAHSH	remained unchanged	17%	Neither binding nor demetallation	Ni-binding: Ni (II) ions bound ([3]; per dimer): 6 Ni (II) per Ni (II) per dimer
HypA: nickel chaperone from H. pylori, SEQ ID NO 1, His-tagged, expressed in E. coli (protein, listed as Bradyrhizobium japonicum, His-tag) MCTVCGCSDGKASIEHAHDHHHDHGHDHDHGHDGHHHHHHGHDQDHHHHHDHAHGDAGLLDCGANPAGQKITGMSSDRIIQVERDILGKNDRLAADNRARFRADEVLAFNLVSSPGAGKTSLLVRAVSELKDSFAIGVIEGDQQTSNDAERIRATGVPAIQVNTGKGCHLDAAMVGEAYDRLPWLNGGLLFIENVGNLVCPAAFDLGEACKIVVFSTTEGEDKPLKYPDMFAASSLMLINKIDLASVLDFDLARTIEYARRVNPKIEVLTLSARTGEGFAAFYAWIRKRMAATTPAAMTAAE	did not display Ni(II)-protoporphyrin (IX) binding or demetallation capabilities	59%	neither binding nor demetallation was observed	Ni-binding: Ni (II) ions bound ([3]; per dimer): 2 Ni (II) ions per Ni (II) per dimer
GloA: nickel metalloenzyme from E. coli, SEQ ID NO 6 (protein, listed as Helicobacter pylori) MDTPNKDDSIIRFSVSLQQNLLDELDNRIIKNGYSSRSELVRDMIREKLVEDNWAEDNPNDGSKIAVLVVIYDHHQRELNQRMIDIQHTSGTHVLCTTHIHMDGHNCLETIILKGNSLEIQRLQLEIGGLRGVKFAKLTKASSFEHNE	little or no binding and demetallation	little or no binding and demetallation	little or no binding and demetallation	Ni-binding: Ni (II) ions bound [3, 7]: 2 Ni (II),
SlyD: nickel chaperone from E. coli, SEQ ID NO 4 (protein, listed as Escherichia coli) MKVAKDLVVSLAYQVRTEDGVLVDESPVSAPLDYLHGHGSLISGLETALEGHEVGDKFDVAVGANDAYGQYDENLVQRVPKDVFMGVDELQVGMRFLAETDQGPVPVEITAVEDDHVVVDGNHMLAGQNLKFNVEVVAIREATEEELAHGHVHGAHDHHHDHDHDGCCGGHGHDHGHEHGGEGCCGGKGNGGCGCH	12%	no change was observed	only minimal changes to the Soret band were observed	Kd of Ni-binding ([3]; C-terminal metal-binding domain (MBD)): nanomolar Kd.
myoglobin conjugated to activated cellulose: myoglobin conjugated to activated cellulose, reported by Smith et al. (conjugate, UniProt P68082 2-154, looked up, conjugated to activated cellulose) Myoglobin: GLSDGEWQQVLNVWGKVEADIAGHGQEVLIRLFTGHPETLEKFDKFKHLKTEAEMKASEDLKKHGTVVLTALGGILKKKGHHEAELKPLAQSHATKHKIPIKYLEFISDAIIHVLHSKHPGDFGADAQGAMTKALELFRNDIAAKYKELGFQG	–	–	–	removal of V, Ni porphyrins [4]: up to 22%
B. japonicum HypB: nickel chaperone HypB from B. japonicum, SEQ ID NO 3 (protein, listed as Helicobacter pylori) MHEYSVVSSLIALCEEHAKKNQAHKIERVVVGIGERSAMDKSLFVSAFETFREESLVCKDAVLDIVDEKVELECKDCSHVFKPNALDYGVCEKCHSKNVVITQGNEMRLLSLEMLAE	29%	99%	Neither binding nor demetallation was observed	binding / demetallation (change of Soret band) [5]: Neither binding to nor demetallation of these substrates was observed; Ni-binding: Ni (II) ions bound [3, 7]: 9 Ni (II) on 24-; binding / demetallation (change of Soret band) [6]: Neither binding to nor demetallation of these substrates was observed

Source: patent US20190177400A1, “BIOLOGICAL UPGRADING OF HYDROCARBON STREAMS WITH NICKEL-BINDING PROTEINS” (ExxonMobil Research and Engineering Company, priority 2017, published 2019)
